Reference: patent publication US12723078 (University of Texas, dated 2026)

B1: B1-#19 (antibody, V domains shown)
VH: EQSVEESGGGLVKPEGSLTLTCKASGLDFSSSYWSCWVRQTPGRGLEWIGCIDVGSSGGSYYASWARGRFTVSKGSSTTVTLQMTSLTAADTATYFCASTTTNVFGYDLWGPGTLVTVSS
VL: ELDLTQTPASVSEPVGGTVTIKCQASQNIYNNLAWYQQKPGQPPKLLIYYASTLASGVPPRFSGSGSGTEYTLTISDLECDDAATYYCQNNAGIYGGYGHGFGGGTEVVVK
notes: recombinant rabbit IgG
B2: B1-#98 (antibody, V domains shown)
VH: EQSLEESGGDLVKPEGSLTLTCTASGFSFSSSYWICWVRQAPGKGLEWIACVATGSGTTDYASWAKGRFTMSKTSSTTVTLQMTSLTVADTATYFCARIGAFYSFRLWGPGTLVTISS
VL: ELDLTQTPGSVEAAVGGTVTIKCQAGQSIYNYLSWYQQKPGQPPKLLIYSASTLESGVPPRFSGSGSGTEFTLTISDLECADAATYSCQNNYGIGSNYGPGFGGGTEVEIK
notes: recombinant rabbit IgG
B3: B1-#115 (antibody, V domains shown)
VH: EQSVKESGGGLVQPEGSLTLTCTASGFSFSSSYWICWVRQAPGKGLEWIGCIATGTGSTYYANWVNGRFTMSKPSSTTVTLQMTTLTAADTATYFCARGGGYWSFSLWGPGTLVTISS
VL: ELVMTQTPSSVEAAVGGTVTNKCQASEDIYSNLAWYQQKPGQPPKLLIYGATTLASGVPSRFKGSGSGTEFTLTISDLECADAATYYCQAESNDVWAFGGGTEVVVK
notes: recombinant rabbit IgG
B4: B1-#72-1 (antibody, V domains shown)
VH: QSVKESGGGLVQPEGSLALTCKASGIDLSNYWYMCWVRQAPGKGLEWIGCVATDSSRTHYATWAKGRFTVSKTSSTTVTLQMTSLTAADTATYFCARGSGASTNGVWWVMGDGMDLWGPGTLVTISS
VL: ELVMTQTPSSVSAAVGGTVTIKCQASPSISTYLSWYQQKPGQPPKRLINRASTLASGVPPRFKGSGAGTQFTLTISDLECADAATYYCQNNYHSGSSNGGGVAFGGGTEVEIK
notes: recombinant rabbit IgG
B5: B1-#128 (antibody, V domains shown)
VH: RAVGKESGGDLVTLGGSLKLSCKASGIDLSNFYYMCWVRQAPGKGLEWIGCVASDSSRTHYATWPKGRFTISKTSSTTVTLQMTSLTAADTATYFCARGSGASTNGVWWVMGDGMDLWGPGTLVTVSS
VL: ELDMTQTPSSVSAAVGGTVTIKCQASQSISSYLSWYQQKPGQPPKRLIYKASTLPSGVPPRFKGSGSGTEFTLTISDLECADAATYYCQNNYHSGSSNGGGFAFGGGTQVEIK
notes: recombinant rabbit IgG
B6: B1-#173-2 (antibody, V domains shown)
VH: QSVEESGGDLVKPGASLTLTCTASGFDFSSNAYLCWVRQAPGKGLEWIGCIYDGTSGDTYYANWAKGRFTISRSSSTTVTLQMTSLTAADTATYFCARDTRSSNYYFNLWGPGTLVTISS
VL: ELVLTQTPSSTSAAVGGTVTINCQASQSVDNNKQLSWYQQKPGQPPKQLIYSASKLASGVPSRFKGSGSGTQFTLTISDLECDDAATYYCAGYYYSGSATDAWAFGGATEVEIN
notes: recombinant rabbit IgG
B7: B1-#25 (antibody, V domains shown)
VH: EQSVKESGGGLVQPEGSLTLTCKVSGIDFNYYNYYYMCWVRQAPGKGLEWIGCMSTASANIYLASWAKGRFTISEASSTTVTLQMTSLTAADTATYFCAKSHGGDGGYGVVLWGPGTLVTISS
VL: ELDLTQTPFSVSAAVGGTVTIKCQASETISNRLAWYQQKPGQPPKLLIYSASTLESGVPSRFKGSGSGTEFTLTISDLECADAATYYCQSIRSSSGIVHPNTFGGGTEVEIK
notes: recombinant rabbit IgG
B8: B1-#226 (antibody, V domains shown)
VH: QEQLVESGGGLVQPEGSLTLTCTASGFSFSSRQYISWVRRAPGKGLEWIGAIVTVNNKVHYANWAKGRFTISEASSTTVTLQMTSLTAADTATYFCARWRTFGLWGPGTLVTVSS
VL: ELVLTQTPSSKSVAVGDTVTINCQASENVYSNNYTSWFQQKPGQPPKQLLYYAAYRASGVPSRFKGSGSGTEFTLSISDVVCDDAATYYCSGHKDYSDDGSTFGGGTEVVVK
notes: recombinant rabbit IgG
B9: B1-#41-1 (antibody, V domains shown)
VH: QSVKESGGDLVKPGASLTLTCTASGFSFSSSYWICWVRQAPGKGLEWIACIYAGSSGSTYYASWAKGRFTISKTSSTTVTLQMTSLTAADTATYFCARSTSGSYGAGLGLWGPGTLVTISS
VL: ELDMTQTASPVSGAVGGTVTIKCQASQNIYNNIGWYQQKPGQPPNLLIYGPSYLASGVPSRFKGSRSGTEYTLTISDLECADAATYYCQSDDWMSISPDIVFGGGTEVEIK
notes: recombinant rabbit IgG
B10: B1-#7 (antibody, V domains shown)
VH: EQSLEESGGGLVKPGASLTVTCAVSGFSLNSYAITWVRQAPGKGLEYIGYIDTGASITDYASWAKGRFTISKTSSTTVTLEMTSLTDADTATYFCARGFSMFKLWGPGTLVTISS
VL: ELDLTQTPSSVSAAVGGTVTISCQASQSVYGNNRLAWYHQKPGQPPKRLIYLASTLDSGVPSRFKGAGSGTQFTLTISDLECDDAATYYCAGGYAGNFNAFGGGTEVEIK
notes: recombinant rabbit IgG
B11: B1-#74 (antibody, V domains shown)
VH: QSLEESGGGLVKPGASLTLTCTASGFSLNRYYMCWVRQAPGKGLEWIGCIYSGSGSTYYASWAKGRFTISKTSSTTVTLQMTSLPAADTATYFCGRLDYRVIYAFNLWGPGTLVTISS
VL: ELVLTQTPASVSAAVGGTVTINCQASQSIGSGNLAWYQQKPGQPPKLLIYLASTLASGVPPRFKGSGSGTEFTLTISDLECDDAATYYCQYTYYGTTYDNAFGGGTELEIK
notes: recombinant rabbit IgG
B12: B1-#110 (antibody, V domains shown)
VH: QSLEESGGDLVKPEGSLTLTCTASGFSFSSSYWICWVRQAPGKGLEWIGCIYAGNSANTYYASWAKGRFTISKTSSTTVTLQLTSLTAADTATYFCASRNGGAPDGLNLWGPGTLVTISS
VL: ELDLTQTPASVEAAVGGTVTIKCQASLNINSWLAWYQQKPGQPPKLLISYTSSLASGVPSRFKGSGSGTEYTLTINDLECADAATYYCQTTYFGTNGGGFGGGTEVEIK
notes: recombinant rabbit IgG
B13: B1-#18 (antibody, V domains shown)
VH: EQSVKESGGGLVKPGGTLTLTCIVSGFSLSRYAVTWVRQAPGKGPEWIGYIDTSSGNKDYANWVNGRFTISKTSSTTVTLQMTSLTAADTATYFCARGFSMFKLWGPGTLVTISS
VL: ELVMTQTPSSVSAAVGGTVTISCQASQSVYNNNNLAWYQQKPGQPPKRLIYSASTLDSGVPSRFSGSGSGTQFTLTISDLECDDAATYYCAGGYTYNINIFGGGTEVEIK
notes: recombinant rabbit IgG
B14: B1-#176 (antibody, V domains shown)
VH: QSLEESEGGLVKPGGTLTLTCTASGFSFSSSYCMCWVRQAPGKGLELIACIYTDSSGATYYASWAKGRFTISKSSSTTITLQMTSLTAADTATYFCARGWDYEDPGYTDTTYFSLWGPGTLVTVSS
VL: ELDLTQTPSSVEAAVGGTVTIKCQASQTIYTNLAWYQQKPGQPPNLLIYAASTLASGVSSRFKGSGSGTEFTLTISDLECADAATYYCQSYYGSSTTGNGFGGGTEVEIK
notes: recombinant rabbit IgG
B15: B1-#76 (antibody, V domains shown)
VH: EQSVEESGGGLVQPEGSLTLTCTASGFSFSGSCDMSWVRQAPGKGLEWIACIVLSNGNTYYAGWAQGRFTISKISSTTVTLEMTSLTAADTATYFCARERYPGAFSSGLDLWGQGTLVTVSS
VL: ELDLTQTPSPVSAAVGGTVTINCQASQIVANGRLAWYQQKPGQPPKLLIYATSTLASGVPSRFKGSGSGTQFTLTINGVQCDDAATYYCQGAYSSGDVRTFGGGTEVVVK
notes: recombinant rabbit IgG
B16: B1-#224 (antibody, V domains shown)
VH: EQSVEESGGGLVQPEGSLTLTCTASGIDFSSGAWICWVRQAPGKGLELIACIFTTSGFTYYASWAKGRFTISKTSSTTVTLQMTSLTAADTATYFCARDIYSYGMDLWGPGTLVTISS
VL: ELVLTQTPSSVSEPVGGTVTIKCQASQSISSSYLAWYQQKPGQPPKFLIYSASTLASGVPSRFKGSGSGTEFTLTISDLECADAATYYCQSTYISSSNYGAAFGGGTEVEIK
notes: recombinant rabbit IgG
B17: B1-#3 (antibody, V domains shown)
VH: QSLEESEGDLVKPEGSLTLTCKASGFDFSSDAMCWVRQAPGKGLEWIGCIYNGDEITDHASWAKGRFTISKTSPTTVTLQMTSLTVADTATYFCARAVYSDGGAGYPYMYGMDLWGPGTLVTVSS
VL: ELDMTQTPASVEAAVGGTVTIKCQASQNIYSYLVWYQQKPGQPPKLLISKASTLASGVSSRFKGSGSGTEFTLTINDLECADAATYYCQTNYFSSTSHFGVFTFGGGTELEIK
notes: recombinant rabbit IgG
B18: B1-#10 (antibody, V domains shown)
VH: EQSVEESGGGLVKPEGSLTLTCKASGLDFSSSYWICWVRQAPGKGLEWIACIDTGSSGSTYYASWAKGRFTVSKTSSTTVSLQMTSLTAADTATYFCASTPNSLGYDLWGPGTLVTISS
VL: ELDLTQTPASVSAAVGGTVTIKCQASQNIVSNLAWYQQKPGQRPKLLIYYASTLASGVPSRFKGSGSGTEYTLTISDLECADAATYYCQNNAGIYGNYGHGFGGGTELEIK
notes: recombinant rabbit IgG
B19: B1-#125 (antibody, V domains shown)
VH: EQSLEESGGGLVQPEGSLTLTCTASGFSFTKNYYMCWVRQAPGKGLEWIGCIYAGSTNTFYASWAKGRFTISKASSTTVDLKMTSLTVADTATYFCARDFVSYLNLWGPGTLVTVSS
VL: ELDLTQTPSSSSAAVGGTVTINCQASQSVYNKNYLSWFQQKPGQPPKLLIYYASTLASGVPSRFKGSGSGTEFTLTISDVVCDDAATYYCAAYKGVSDDGISFGGGTEVEIK
notes: recombinant rabbit IgG
B20: B1-#196-2 (antibody, V domains shown)
VH: QEQLVESGGGLVQPEGSLTLTCTDSGFSFTKNYYMCWVRQAPGKGLEWIGCIYAGSTNTFYASWAKGRFTISKASSTTVDLKMTSLTVADTATYFCARDFVSYLNLWGPGTLVTVSS
VL: ELDMTQTPSSTSAAVGGTVTIKCQASQSVYNNNQLSWFQQKPGQPPKRLIYGASTLESGVPSRFSGSGSGTQFTLTISDLECDDAATYYCQGAVSSDYYPFGGGTEVEIK
notes: recombinant rabbit IgG

How the values were obtained:
recombinant LILRB1 [1] = biological target: T1, recombinant LILRB1 (human, UniProt Q8NHL6 24-461); assay: ELISA, coated recombinant LILRB1, antibody titration;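 note: serially diluted anti-LILRB1 antibodies incubated 60 min at 37 °C on plates coated with 50 ng/well recombinant protein, TMB colorimetric development read as absorbance at 450 nm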
T1 construct: LILRB1-Fc proteins were also made; also called LILRB1 recombinant proteins
Protocol: ELISA. LILRB1 recombinant proteins (50 ng/well, 100 μL per well) were coated on Corning 96-well ELISA plates at 37° C. for 4 hrs. Plates were blocked for 2 hrs at 37° C. with 5% non-fat milk. After washing with PBST, 100 μL of serial diluted anti-LILRB1 antibodies were added and incubated for 60 min at 37° C. […] Plates were washed again with PBST for another 5 times, then the immunoreactions were developed with TMB substrates (Sigma, Cat #T0440) and stopped by the addition of 2 M H_2SO_4 before the plate was read at 450 nm.

recombinant LILRB1 [2] = biological target: T1, recombinant LILRB1; assay: BLI (Octet RED96), antibody on biosensor, recombinant LILRB1 in solution;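 note: Background-subtracted sensorgrams fitted with a one-to-one binding model, KD taken as koff over kon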
Protocol: Following a short baseline in kinetics buffer for 20 s, the loaded biosensors were exposed to solutions of recombinant LILRB1 in a range of concentrations (0-500 nM). After background was subtracted, data was fit to a 1:1 binding model to extract an association rate ($kon$) and dissociation rate ($koff$). The KD was calculated using the ratio $koff/kon$. […] All experiments were performed with shaking at 1,000 rpm. All raw data was processed using ForteBio Octet Data Analysis Software 9.0.

T1 sequence (Q8NHL6 24-461 limits assumed): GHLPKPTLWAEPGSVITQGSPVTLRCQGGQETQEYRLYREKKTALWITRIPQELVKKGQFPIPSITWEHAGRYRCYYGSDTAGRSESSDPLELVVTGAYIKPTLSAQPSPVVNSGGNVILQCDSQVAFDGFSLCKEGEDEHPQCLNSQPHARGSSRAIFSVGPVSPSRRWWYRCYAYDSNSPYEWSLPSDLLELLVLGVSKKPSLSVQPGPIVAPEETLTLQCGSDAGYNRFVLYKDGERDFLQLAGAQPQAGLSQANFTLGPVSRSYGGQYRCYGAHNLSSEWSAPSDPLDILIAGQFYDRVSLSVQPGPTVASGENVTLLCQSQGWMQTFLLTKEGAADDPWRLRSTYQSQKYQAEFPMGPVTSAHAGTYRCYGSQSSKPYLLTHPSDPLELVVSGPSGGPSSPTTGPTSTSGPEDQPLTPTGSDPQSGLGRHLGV

| EC50 (recombinant LILRB1 [1]) | Kd (recombinant LILRB1 [2]) | koff (recombinant LILRB1 [2]) | kon (recombinant LILRB1 [2]) | Binder |
| --- | --- | --- | --- | --- |
| 0.0196 µg/mL | – | – | – | B1 |
| 0.038 µg/mL | – | – | – | B2 |
| 0.052 µg/mL | – | – | – | B3 |
| 0.011 µg/mL | 3.14 nM | 0.000237 s⁻¹ | 75700 M⁻¹ s⁻¹ | B4 |
| 0.04 µg/mL | – | – | – | B5 |
| 0.00656 µg/mL | 1.37 nM | 0.000262 s⁻¹ | 192000 M⁻¹ s⁻¹ | B6 |
| 0.0132 µg/mL | – | – | – | B7 |
| 0.00826 µg/mL | – | – | – | B8 |
| 0.0944 µg/mL | 15.8 nM | 0.00506 s⁻¹ | 320000 M⁻¹ s⁻¹ | B9 |
| 0.0159 µg/mL | – | – | – | B10 |
| 0.13 µg/mL | 16.1 nM | 0.00145 s⁻¹ | 89900 M⁻¹ s⁻¹ | B11 |
| 0.0178 µg/mL | – | – | – | B12 |
| 0.0182 µg/mL | – | – | – | B13 |
| 0.00224 µg/mL | 0.619 nM | 5.59e-05 s⁻¹ | 90300 M⁻¹ s⁻¹ | B14 |
| 0.0284 µg/mL | – | – | – | B15 |
| 0.0109 µg/mL | – | – | – | B16 |
| 0.0119 µg/mL | 0.505 nM | 5.63e-05 s⁻¹ | 112000 M⁻¹ s⁻¹ | B17 |
| 0.0209 µg/mL | – | – | – | B18 |
| 0.0076 µg/mL | – | – | – | B19 |
| 0.151 µg/mL | – | – | – | B20 |
